Test results published in US20190218283A1 (published 2019).

Target: murine pro-myostatin (proGDF8) (mouse, UniProt O08689 25-376)
Assay: cell-based or functional assay

B1: Ab6 (Ab5 IgG4 containing the corrected germline residues) (antibody, V domains shown)
VH: QVQLVESGGGVVQPGRSLRLSCAASGFAFSSYGMHWVRQAPGKGLEWVAVISYDGNNKYYADSVKGRFTISRDNSKNTLYLQMNSLRAEDTAVYYCARDLLVRFLEWSHKYGMDVWGQGTTVTVSS
VL: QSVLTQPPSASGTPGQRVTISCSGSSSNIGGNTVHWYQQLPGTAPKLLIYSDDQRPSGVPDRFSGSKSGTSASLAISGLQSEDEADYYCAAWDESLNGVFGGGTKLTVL
Activity Assay - 293T cells EC50: 0.307 nM
